# The supplement of paper PMC9112550, “Optimization of the antimicrobial peptide Bac7 by deep mutational scanning” (BMC Biology, 2022)
# System: Escherichia coli TOP10
# Assay: shrunken log2 fold change of peptide-encoding DNA abundance (4.5 h post-induction vs induction); higher = less antimicrobial activity (less host growth inhibition)
# Conditions: time post-induction: 4.5 h; library: site-saturation at positions 5, 18, 19, 20
# 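Further: peptides expressed intracellularly from a pBAD plasmid library in pooled LB shake-flask culture, induced with 0.3% L-arabinose, DNA abundance read by NGS, three biological replicates, DESeq2 with apeglm shrinkage.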
row,Sequence,shrunken log2 fold change
1,RRIRHRPPRLPRPRPRPASYPRP,-0.103
2,RRIRRRPPRLPRPRPRPRYKPRP,-0.0686
3,RRIRVRPPRLPRPRPRPPLCPRP,0.338
4,RRIRCRPPRLPRPRPRPQYAPRP,-0.231
5,RRIRRRPPRLPRPRPRPIMSPRP,-0.0839
6,RRIRMRPPRLPRPRPRPLHVPRP,-0.21
7,RRIRMRPPRLPRPRPRPLGMPRP,-0.112
8,RRIRKRPPRLPRPRPRPAHQPRP,0.162
9,RRIRWRPPRLPRPRPRPKLFPRP,0.589
10,RRIRSRPPRLPRPRPRPDIYPRP,-0.194
11,RRIRRRPPRLPRPRPRPRWIPRP,0.356
12,RRIRCRPPRLPRPRPRPQENPRP,-0.0731
13,RRIRRRPPRLPRPRPRPTFTPRP,0.128
14,RRIRFRPPRLPRPRPRPHWGPRP,-0.0695
15,RRIRFRPPRLPRPRPRPNCYPRP,-0.435
16,RRIRARPPRLPRPRPRPVGDPRP,0.515
17,RRIRVRPPRLPRPRPRPRQWPRP,0.236
18,RRIRERPPRLPRPRPRPMKYPRP,0.0847
19,RRIRMRPPRLPRPRPRPMFLPRP,-0.273
20,RRIRCRPPRLPRPRPRPPFLPRP,-0.0759
21,RRIRMRPPRLPRPRPRPEQDPRP,0.0255
22,RRIRYRPPRLPRPRPRPMKIPRP,-0.0574
23,RRIRNRPPRLPRPRPRPWNHPRP,-0.612
24,RRIRMRPPRLPRPRPRPCDVPRP,0.0259
25,RRIRRRPPRLPRPRPRPGAIPRP,0.179

row,Sequence,shrunken log2 fold change
1,RRIRARPPRLPRPRPRPHYGPRP,0.0153
2,RRIRRRPPRLPRPRPRPDRNPRP,0.00393
3,RRIRWRPPRLPRPRPRPMQWPRP,0.379
4,RRIRLRPPRLPRPRPRPCEKPRP,-0.00674
5,RRIRCRPPRLPRPRPRPCDNPRP,-0.0831
6,RRIRHRPPRLPRPRPRPQINPRP,-0.827
7,RRIRARPPRLPRPRPRPEMAPRP,0.739
8,RRIRRRPPRLPRPRPRPGKNPRP,0.16
9,RRIRTRPPRLPRPRPRPMYSPRP,-0.00295
10,RRIRTRPPRLPRPRPRPTIRPRP,-0.0471
11,RRIRWRPPRLPRPRPRPTWVPRP,0.688
12,RRIRLRPPRLPRPRPRPSNHPRP,-1.15
13,RRIRPRPPRLPRPRPRPWPMPRP,-0.151
14,RRIRWRPPRLPRPRPRPHVYPRP,-0.132
15,RRIRPRPPRLPRPRPRPERGPRP,0.575
16,RRIRFRPPRLPRPRPRPDCLPRP,-0.0266
17,RRIRMRPPRLPRPRPRPSTNPRP,0.0712
18,RRIRSRPPRLPRPRPRPTDSPRP,-0.0593
19,RRIRMRPPRLPRPRPRPGDPPRP,1.09
20,RRIRYRPPRLPRPRPRPVAKPRP,-0.128
21,RRIRQRPPRLPRPRPRPVCPPRP,-0.0461
22,RRIRPRPPRLPRPRPRPHVPPRP,3.25
23,RRIRYRPPRLPRPRPRPQWAPRP,-0.00681
24,RRIRPRPPRLPRPRPRPYTPPRP,-0.447
25,RRIRYRPPRLPRPRPRPGKTPRP,-0.0233

row,Sequence,shrunken log2 fold change
1,RRIRVRPPRLPRPRPRPILNPRP,-0.287
2,RRIRIRPPRLPRPRPRPMGVPRP,-0.0148
3,RRIRCRPPRLPRPRPRPMEQPRP,-0.00403
4,RRIRSRPPRLPRPRPRPTVAPRP,0.243
5,RRIRPRPPRLPRPRPRPFLKPRP,-0.159
6,RRIRDRPPRLPRPRPRPLHAPRP,0.317
7,RRIRVRPPRLPRPRPRPFMFPRP,-0.433
8,RRIRFRPPRLPRPRPRPSPWPRP,1.82
9,RRIRIRPPRLPRPRPRPYETPRP,-0.0282
10,RRIRTRPPRLPRPRPRPEDGPRP,0.0244
11,RRIRYRPPRLPRPRPRPHPIPRP,-0.0356
12,RRIRIRPPRLPRPRPRPCSFPRP,-0.45
13,RRIRYRPPRLPRPRPRPLLMPRP,-0.547
14,RRIRLRPPRLPRPRPRPLPQPRP,0.0529
15,RRIRFRPPRLPRPRPRPCVDPRP,0.0365
16,RRIRHRPPRLPRPRPRPTQSPRP,0.113
17,RRIRPRPPRLPRPRPRPSEYPRP,-0.366
18,RRIRARPPRLPRPRPRPFTEPRP,-0.261
19,RRIRYRPPRLPRPRPRPRKEPRP,0.00543
20,RRIRMRPPRLPRPRPRPPYTPRP,-0.0678
21,RRIRSRPPRLPRPRPRPPTAPRP,0.447
22,RRIRSRPPRLPRPRPRPGLAPRP,0.444
23,RRIRYRPPRLPRPRPRPIGDPRP,-0.00783
24,RRIRQRPPRLPRPRPRPDAAPRP,1.08
25,RRIRDRPPRLPRPRPRPVSNPRP,0.00716
